The values that follow come from patent publication US20160109449A1 (JULIUS MAXIMILIANS UNIVERSITAET WUERZBURG, published 2016).

By koff is commonly meant the rate constant with which the complex falls apart.

The target in this assay is T1, recombinant IsaA protein of Staphylococcus aureus (29 kDa immunodominant antigen IsaA) (Staphylococcus aureus, UniProt Q2FV52 30-233, limits assumed).
T1 construct: Coated as rIsaA in the ELISA; In the first SPR experiment it was N-biotinylated with sulfo-NHS-LC-biotin (mostly at a single site) and immobilised on streptavidin; In the second SPR experiment it was the analyte in solution; also called rIsaA; 29 kDa IsaA antigen
T1 sequence (looked up): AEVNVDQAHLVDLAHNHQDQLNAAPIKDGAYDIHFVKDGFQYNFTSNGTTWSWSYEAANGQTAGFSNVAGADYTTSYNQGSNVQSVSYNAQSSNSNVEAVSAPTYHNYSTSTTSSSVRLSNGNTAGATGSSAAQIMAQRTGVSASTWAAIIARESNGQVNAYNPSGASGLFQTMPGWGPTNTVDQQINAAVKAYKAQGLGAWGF
Kind of assay: SPR (BIACORE 2000), biotinylated IsaA on streptavidin chip, antibody as analyte.

Description: The amount of the immobilized antigen corresponds to about 100 resonance units [RU] measured by means of the BIACORE®2000 system.
Interaction analyses were performed using HBS150 buffer (10 mM HEPES pH7.4, 150 mM NaCl, 3.4 mM EDTA). Sensorgrams were recorded at a flow rate of 10 μl/min at 25° C. The association and dissociation time was set to 10 min. The chips were regenerated after each cycle with different regeneration solutions (A: 1 mM CH₃COOH, 1 M NaCl, pH 3; B: 4 M MgCl₂; C: 1 mM CH₃COOH, 1 M NaCl, 6 M Urea, pH 3) for 2 min.

B1: monoclonal antibody MAB-UK-66 secreted by hybridoma cell line DSM ACC2987 (antibody, V domains shown)
VH: DVKLVESGGGLVKLGGSLKLSCSASGFTFSNYYMSWVRQTPEKRLELVADINGNGGSTYYPDTVKGRFTISRDNAKNTLYLQMSSLKSEDTALYYCVRRGGYYALDYWGQGTTVTVSS
VL: DVVMTQTPLSLPVSLGDQASISCRSSQSLVHINGNTYLHWYLQKPGQSPKLLIYRVSNRFSGVPDRFSGSGSGTDFTLKISRVEAEDLGVYFCSQSTHVPWTFGGGTKLELKR
notes: Monoclonal mouse antibody from a hybridoma; Detected with anti-mouse IgG; also called antibodies secreted by cell line DSM ACC2987; anti-IsaA MAB
Regarding B1, the koff was less than 1e-05 s⁻¹.
